Experimental data reported in PMC6950786 (EBioMedicine, 2020).

Target: T1, GST-TNFAIP1(1–316) (UniProt Q13829 1-316)
T1 sequence (looked up): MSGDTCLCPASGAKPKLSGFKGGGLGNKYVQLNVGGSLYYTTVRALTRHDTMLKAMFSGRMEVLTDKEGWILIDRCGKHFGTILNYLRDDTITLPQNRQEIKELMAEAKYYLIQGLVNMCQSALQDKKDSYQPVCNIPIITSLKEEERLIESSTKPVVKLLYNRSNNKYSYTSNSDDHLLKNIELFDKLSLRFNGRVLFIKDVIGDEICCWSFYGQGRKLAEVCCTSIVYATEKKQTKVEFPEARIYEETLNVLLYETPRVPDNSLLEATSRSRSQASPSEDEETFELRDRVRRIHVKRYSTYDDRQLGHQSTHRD
Test: pull-down

binding result: binds
B1: His-CSNK2B (natural protein)
chain: not shown
